Assay: soluble on expression in E. coli; label from the status in PepcDB or PDB records

Q: With “STTEEESLSAAEEGYNVQRDYWRQAEESDGFDIENIKLPPGMHGRVMGLITYNCQLCYRYPFPVLVKLYAKFGLHRYNLIKGTSFELAALMKFNMLQNYMSSFYMTLLAHDPDPAASSSQKTFQVRVDEQQFGTLGINCSIARPKHEGDLLEVSTKTPFIPHFHGGALGDGIFKGELPDCLSDDALNALMEAVSKDELPEHVLDDALYARAGGIFQGELPDWPSDDALNDGKRFYMLKESEWQATDWISMYLELVITTTDRSITEPEVLSKLEIVKVAIETATKDEEPSNERLKAYRAHFYITFKGLAEPRAPRQVFEIGEHVERQAIVRRVMGHRGDLTLKGKLCGGQYIKRRSLALKSGEESPNCKKQTRVG” as the sequence, how does the “soluble on expression in E. coli” value read?
A: Its value is “soluble”.

Q: Which “soluble on expression in E. coli” value does the source give for “MGSDKIHHHHHHMCYNNSMNERYIRFNPNIAKQKPSNKDKCPFCDKSQLGKILDVKDDMIWVENKYPTLEETYQTLVIESNDHNGDISVYSESKMRQLLDYLLSKWQLMEESGHYRSVVLYRNFGPLSGGSLRHPHSQIVGLKNVDAYETLNLDWFDGIEVCSETSQQAEISIANRPMLDFTEFTIKVSKLENAILIADSLPILCHYILNEFLGGRCKSYNLFFYKHDGGLICKIVPRFIVSPYQIGYAIHQVNLPDELEKIKEALRAKYYL” here?
A: Its value is “not soluble”.

Q: With “MLILNQRQQELLDMVKRESYVSVEKLADHFSVTRQTIRRDIALLAEHQLLQRYHGGASVLSSVENVAYQARQVLCIEEKRRIAACVARHIPDNASLFINLGTTTEEVAKALHRHRGLRVITNNLHVAEQMCDYPDCEVIVLGGSLRKRDRGLTGEATVQMIRQFRVDYGIIGVSSIESDGTLRDYDYREVRTTEAIIQQSRQVFLAADHSKFDRPALVELGRLSQIAALFTDKPVPPAIAHVMQEAGTQLHVAELEHHHHHH” as the sequence, how does the “soluble on expression in E. coli” value read?
A: The value was “soluble”.

Q: Which “soluble on expression in E. coli” value does the source give for “MSVKQEQCLIKVVSYDSNWPVQFEQEAERIKKALGSNCIEIHHIGSTSVPDLVAKPVIDMIPVVLDISKVDGANAAIRALGYEAKGEYGIPFRRYFQKGDNRLTHHAHVFELGNPEIERHLKFRDWMRMHPKDREAYARLKQELARRYSDDITAYCLGKEDFIATIDKKAGFNGLRMVKALTTREWDKVRHFRQFYFFDKAGLSDPYTWTFEHNAHVHFVLFQGSEITGYAHLQLWSHNRAALRIIVIDELKRNHQYGTRFLALCEKWLKSQGYQSLHVESSPDALKFYRNNGYIDMPFDDPDGYEGDPRDTAVGKIL” here?
A: The value was “not soluble”.

Q: With “MAHHHHHHMFLLCRTNLAKKIKDKIPYGVKQSQNYKDAKKQERLALEANRKLKESRGMLLDGKKNLFMCLRQNSDINWYRAGQILKHLEIHQRAKPDITPSLREKITNIANFVKKGR” as the sequence, how does the “soluble on expression in E. coli” value read?
A: The value was “soluble”.

Q: Which “soluble on expression in E. coli” value does the source give for “MSLENKRILITGGAGFIGSNMVEHLLPKNEVTVIDNLSITDDRYIKKFYDNPNFKFIKKDILNGIDGYHYDIVVHLAADSDVRNGSSNPALDMKVNVEGTISVLEMMRKSDIKDILFASSSTVYGEAKVIPTPENYGPLLPISSYGASKLAAEAFISAYASYYGFNALLFRFANVVGKNSTHGVIFDFINKLKNNKKELEVLGDGTQAKSYIHVEDLIGSMIYVYEHVKGVEPFNLGNDDVTSVDKIAKFVLEAMGLKDTAIVHRGGYNGRGWPGDVKYAMMDIAKLKKTGWKNKYSSDEAVKKSINEVMNQILEGHHHHHH” here?
A: The value was “soluble”.

Q: With “MVFKPHRINCRDFTFKIELKEKKILRGRAMLDKIDRKLLALLQQDCTLSLQALAEAVNLTTTPCWKRLKRLEDDGILIGKVALLDPEKIGLGLTAFVLIKTQHHSSEWYCRFVTVVTEMPEVLGVWRMAGEYDYLMRVQVADMKRYDEFYKRLVNSVPGLSDVTSSFAMEQIKYTTSLPIE” as the sequence, how does the “soluble on expression in E. coli” value read?
A: Its value is “not soluble”.

Q: For “MNDQRKKARNTPFNMLKRERNRVSTVQQLTKRFSLGMLQGRGPLKLFMALVAFLRFLTIPPTAGILKRWGTIKKSKAINVLRGFRKEIGRMLNILNRRRR”, which “soluble on expression in E. coli” value is on record?
A: The value was “soluble”.

Q: For “GMEPLKVEKFATANRGNGLRAVTPLRPGELLFRSDPLAYTVCKGSRGVVCDRCLLGKEKLMRCSQCRVAKYCSAKCQKKAWPDHKRECKCLKSCKPRYPPDSVRLLGRVVFKLMDGAPSESEKLYSFYDLESNINKLTEDRKEGLRQLVMTFQHFMREEIQDASQLPPAFDLFEAFAKVICNSFTICNAEMQEVGVGLYPSISLLNHSCDPNCSIVFNGPHLLLRAVRDIEVGEELTICYLDMLMTSEERRKQLRDQYCFECDCFRCQTQDKDADMLTGDEQVWKEVQESLKKIEELKAHWKWEQVLAMCQAIISSNSERLPDINIYQLKVLDCAMDACINLGLLEEALFYGTRTMEPYRIFFPGSHPVRGVQVMKVGKLQLHQGMFPQAMKNLRLAFDIMRVTHGREHSLIEDLILLLEECDANIRAS”, which “soluble on expression in E. coli” value is on record?
A: The value was “soluble”.

Q: Which “soluble on expression in E. coli” value does the source give for “SPVVVVTGASRGIGKAIALSLGKAGCKVLVNYARSAKAAEEVSKQIEAYGGQAITFGGDVSKEADVEAMMKTAIDAWGTIDVVVNNAGITRDTLLIRMKKSQWDEVIDLNLTGVFLCTQAATKIMMKKRKGRIINIASVVGLIGNIGQANYAAAKAGVIGFSKTAAREGASRNINVNVVCPGFIASDMTAKLGEDMEKKILGTIPLGRTGQPENVAGLVEFLALSPAASYITGQAFTIDGGIAI” here?
A: The value was “soluble”.

Q: With “MKQAIVYWKTLKAGILTESDEGYSFAYDKDYLTMPEAQGISLTMPLREEPFQSNMLHPFFDGLIPEGWLLDIAQKNWKIDSRDRMALLLACCRDCIGAVSIEPLNTTEDDE” as the sequence, how does the “soluble on expression in E. coli” value read?
A: Its value is “not soluble”.

Q: Which “soluble on expression in E. coli” value does the source give for “MSLPLSKTLVQKLQQAGMAIANNQPQIKFTPLSISDEKGKVALDLNIALVPNPKFDLMHSGLYKQFKDFSINFDVNKETAISLLSKFVPENQKQDLVYRMDELIAEGEANGIIVNTDKTVTLTLALENNDLKLNGKPIPEEQLKVVLFILVMGGFGREGHHHHHH” here?
A: The value was “soluble”.

Q: For “MAHHHHHHMCDPLVERFISDIIRDPQAWKRAVTSPDNRCCLLPTSNVIRSLAGPLFRRGCVDNVSSLRFLTTLRRDTLSGGNVQRVSMKRKDLRGPWDHRTRVSEEDQPNILIQLLVRQLERNGFGTSYRKAVYSLLGKQVKEMSKKKRQHDAAATAKTMKLNARRIEHLLMEEYNERKKTCDREGRRRQALVRGFFNKASVVVENEEFIGRRTIFQDALDECFAIKTLMEGETQKLTGIPPEHQRNYFAIQQKEKHERECLLARFETQRRAIYLQLQHDIKNSIKSEIRRIMRREKHIEELYKKHGCGK”, which “soluble on expression in E. coli” value is on record?
A: The value was “not soluble”.

Q: For “MSLDIQIQYSTDWKEEFLKRLEDGGPWSNWEMGKLAYEAANYQVIPEFHGLQAPKHLPQLQPFPHQMEVAQTVIEQMNGKAILADEVGLGKTIEAGLILKEYMIRGLAKKVLILVPASLVSQWAYELSSKFYIPAIPQKKAYVWEQYDVVVASIDTAKRQPHRDIVLNQHYDLVIIDEAHKLKNPKTKNYAFIKSLKRKYCLLLTATPVQNKLEEIFNLVSLLKPGHLGDLESFEKEYRANKRAPKNEDKLKELVNKVMVRNRREETGIEWTKRIVQTVPITFSEGERAFYHAITKLKQQPDVMTNSFSLLTLQREICSSREAAFMTLKNMITKLEQEGRTSPILESLIEQVGTIEGHAKAEKALELIQQINDKVIIFTEYRATQLYLQWYLKQHGISSVPFRGGFKRGKKDWMRQLFENRAQVLIATEAGGEGINLQFCHHIINYDLPWNPMRIEQRIGRIHRLGQTEDVRIYNFAVKDTIEEQILTLLYEKIQLFERVVGELDDILTKMNVGSIEEHIRDIFVHSDSEGEMKIKLDHLSAIMNDVANEKEEDHATGATASVSDALLEGHHHHHH”, which “soluble on expression in E. coli” value is on record?
A: Its value is “not soluble”.

Q: For “MGSDKIHHHHHHMDKMLYTAASGASRIMEAQSIRANNLANAETTGFKADLERVKSMALPGVEASLSTRVLVQTQSNGFSQQSGEMNHTGRNLDMAIRDRGLFTVMVDGGEAYTRAGAMIADAEGQLTVNGRPVLGIDGPMVLPEHKDLFVGEDGTISVLPAEGGVIQEVGRLKMVNPELNELTKGADGLLYPIAAGVLAADDGVQVDSGYLESSNVQAVSELIASMDLSRQFEIQVKLMKSAEKLAEAGNRLIRNA”, which “soluble on expression in E. coli” value is on record?
A: Its value is “not soluble”.

Q: With “MSLELLIPQLEFLNEEGAQAEVWALSRIFLDTLVKETGQKVKAIFPDAGAAALLKYQWTDAEFKCASLSDRKPVDVEDEVVVMIIPDHQMVESVERIASQLSDDPIRPLVMWNPRLVSGDVGVGFNVRNLRRNFLSTFTTVYSMRPLPTGAVFRQYPGKWKVFYDDPKRPNRYLLARELVSRPDATDIEIIFGGGDEQSDEAPSLMNNVMGVFSSVSRFMRVISKEGHHHHHH” as the sequence, how does the “soluble on expression in E. coli” value read?
A: The value was “not soluble”.

Q: For “MASAVGEKMLDDFEGVLNWGSYSGEGAKVSTKIVSGKTGNGMEVSYTGTTDGYWGTVYSLPDGDWSKWLKISFDIKSVDGSANEIRFMIAEKSINGVGDGEHWVYSITPDSSWKTIEIPFSSFRRRLDYQPPGQDMSGTLDLDNIDSIHFMYANNKSGKFVVDNIKLIGALEHHHHHH”, which “soluble on expression in E. coli” value is on record?
A: Its value is “soluble”.

Q: For “MSTPSVHCLKPSPLHLPSGIPGSPGRQRRHTLPANEFRCLTPEDAAGVFEIEREAFISVSGNCPLNLDEVQHFLTLCPELSLGWFVEGRLVAFIIGSLWDEERLTQESLALHRPRGHSAHLHALAVHRSFRQQGKGSVLLWRYLHHVGAQPAVRRAVLMCEDALVPFYQRFGFHPAGPCAIVVGSLTFTEMHCSLRGHAALRRNSDR”, which “soluble on expression in E. coli” value is on record?
A: Its value is “soluble”.

Q: Which “soluble on expression in E. coli” value does the source give for “TTCCPSIVARSNFNVCRLPGTPEALCATYTGCIIIPGATCPGDYAN” here?
A: The value was “soluble”.

Q: Which “soluble on expression in E. coli” value does the source give for “MLLLTRSPTAWHRLSQLKPPVLPGTLGGQALHLRSWLLSRQGPAETGGQGQPQGPGLRTRLLITGLFGAGLGGAWLALRAEKERLQQQKRTEALRQAAVGQGDFHLLDHRGRARCKADFRGQWVLMYFGFTHCPDICPDELEKLVQVVRQLEAEPGLPPVQPVFITVDPERDDVEAMARYVQDFHPRLLGLTGSTKQVAQASHSYRVYYNAGPKDEDQDYIVDHSIAIYLLNPDGLFTDYYGRSRSAEQISDSVRRHMAAFRSVLS” here?
A: The value was “not soluble”.

Q: For “GKLKKKGYLRIVTTQGSLNIELHADMAPRACDSFLRLCAVKYFDDTIFHRCIRNFMIQGGRAELRQPSKKKEVQQSPRSISGFPGGAPFEDEFDNRLVHQGIGVLSMANDGKHSNLSEFFITFKSCEHLNNKHTIFGRVVGGLDVLRQWEKLETDKKDKPLKPPKVEEIIVFKNPFEDARKEMEDEKREEEEKEKKKLENA”, which “soluble on expression in E. coli” value is on record?
A: The value was “soluble”.

Q: With “MPEKKSLLEVPPELVFSGPFDHVITTYMTLTNISQSPVCFLVKTTVPNSYCVRPNRGILNIGDSKQIEVMLQPLEKVPPDAKQHKFLVQSCVAPSIDVSDLESVWKNVKPDELTYNRLVVTFVDNTDSKSNIECEICTLEFSSVVDNQIPRILQCGHSICQSCASKLAKNCVILCPFCRNETNVSSVASLPKNFALLQAIDQKTLRVPPLEIAKLRQQLSCQLSKLEEQVSKTDKSIKAVGRAQLSNLKDGREFQERKDSIVSYYASIRETINALENEAIGKLHTIADMNVSKNALLVAELSEILKHQNLKIAELKLSMEMDDVELATRSLTDSGTECAVVKPAVLDVALTFPEIDKMALLSMTTKFPSNFSTV” as the sequence, how does the “soluble on expression in E. coli” value read?
A: Its value is “not soluble”.

Q: With “SDFVNNLDTDTSLSILSCLDDPSDIVRASAVSRSWRQFVVKYSLSKNLCLKLFHQLSNVDHIIETSNDRNGESSEAGSSSLMDTRLLEKEHRAFALLARGCMSSPIESCIADAIRASSTDNYPVESILNTLEKRDRIGRTPSYWSSTGQHKTTVPESLLYKLIGDLCLITEVSIHPFQAYFQRGHPIYSSHYVRFRLGHEKDNSPHYNNSQDKKGEPGKSSIESNYVWTYTSQEFSMAQENRLQSFQLPEPVLCIGGYLLVEFLGRVQTQEMDGQYYICVSHVKVEGRSLAKSFRVENVDDNGKFGLKVLSYNDPKKMEEMDAEAGQDMDAEAGQSQLRNLEQLLNLLHRHPLDVVDYVWPDESDDEYAESEDEAEP” as the sequence, how does the “soluble on expression in E. coli” value read?
A: Its value is “soluble”.

— the DeepSol protein solubility set
